The target of this series is Integration host factor (IHF alpha/beta heterodimer) (Escherichia coli, UniProt P0A6X7;P0A6Y1 SEQ:1-99,SEQ:1-94). As to the kind of experiment: footprint; DNase I footprint at 50 nM IHF; hypersensitive site indicative of DNA bending. As to conditions: tags: crystallographically pure IHF, gift of Howard Nash, NIH; no tag stated; label: 32P end label.
Sequence of Integration host factor (IHF alpha/beta heterodimer) (P0A6X7 whole entry, chain 1 of 2): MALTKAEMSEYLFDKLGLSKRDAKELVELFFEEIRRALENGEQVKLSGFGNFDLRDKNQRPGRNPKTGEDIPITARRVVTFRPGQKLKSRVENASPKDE
Sequence of Integration host factor (IHF alpha/beta heterodimer) (P0A6Y1 whole entry, chain 2 of 2): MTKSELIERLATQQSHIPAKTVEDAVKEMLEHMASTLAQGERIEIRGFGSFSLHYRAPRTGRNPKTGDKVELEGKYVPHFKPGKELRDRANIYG

B1: 386 bp BCAL0339-BCAL0340 intergenic region (T6SS gene cluster upstream) (dsDNA)
DNA 1: TCTCAACGATTTA
DNA 2: TAAATCGTTGAGA
In the case of B1, the binding result is reported as “binds”.

The values are drawn from patent US20160175440A1, “COMPOSITIONS AND METHODS FOR THE […] OF BURKHOLDERIA INFECTIONS” (Research Institute at Nationwide Children's Hospital, published 2016).
